Measured values reported in paper doi:10.1101/2023.02.23.529715 (bioRxiv, 2023).
Where two headings read alike, the source gives them in different places.

Assays:
[1] = target: GFP-HilD (Salmonella enterica) (UniProt P0CL08); assay: MST
[2] = target: HilD (full length, unfused) (Salmonella enterica) (UniProt P0CL08); assay: SEC-MALS
[3] = target: HilD N-terminal domain (HilD NTD, residues 7-206) (Salmonella enterica) (UniProt P0CL08); assay: SEC-MALS
[4] = target: GFP-HilD (Salmonella enterica) (UniProt P0CL08); assay: MST; remark: listed apart in the source
GFP-HilD [5] = target: T1, GFP-HilD (Salmonella enterica, UniProt P0CL08 1-309); assay: MST
T1 sequence (looked up): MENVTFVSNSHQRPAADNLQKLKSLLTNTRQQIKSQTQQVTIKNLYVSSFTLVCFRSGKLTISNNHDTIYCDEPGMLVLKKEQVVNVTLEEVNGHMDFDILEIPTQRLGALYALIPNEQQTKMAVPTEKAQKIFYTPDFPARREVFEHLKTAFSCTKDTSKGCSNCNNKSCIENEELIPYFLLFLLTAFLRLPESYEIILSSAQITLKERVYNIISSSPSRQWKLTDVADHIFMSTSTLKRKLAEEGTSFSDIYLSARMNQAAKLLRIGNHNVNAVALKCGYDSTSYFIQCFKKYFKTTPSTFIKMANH

GFP-HilD [6] = target: T1, GFP-HilD; assay: MST; remark: listed apart in the source
SEC-MALS = target: the molecule itself; assay: SEC-MALS

Question: What does the source list for HilE (natural protein)?
Answer: Kd [1]: 1700 nM; stoichiometry N (HilE per HilD) [2]: 1; stoichiometry N (HilE per HilD NTD) [3]: 1; Kd [4]: 1680 nM

B1: HilD (full length, unfused) (natural protein, Salmonella enterica, UniProt P0CL08 1-309, looked up)
chain: MENVTFVSNSHQRPAADNLQKLKSLLTNTRQQIKSQTQQVTIKNLYVSSFTLVCFRSGKLTISNNHDTIYCDEPGMLVLKKEQVVNVTLEEVNGHMDFDILEIPTQRLGALYALIPNEQQTKMAVPTEKAQKIFYTPDFPARREVFEHLKTAFSCTKDTSKGCSNCNNKSCIENEELIPYFLLFLLTAFLRLPESYEIILSSAQITLKERVYNIISSSPSRQWKLTDVADHIFMSTSTLKRKLAEEGTSFSDIYLSARMNQAAKLLRIGNHNVNAVALKCGYDSTSYFIQCFKKYFKTTPSTFIKMANH
Question: How did the Kd (GFP-HilD [5]) turn out when B1 was run?
Answer: The Kd was 4520 ± 500 nM.

Question: And the Kd (GFP-HilD [6])?
Answer: Its Kd is 3390 ± 770 nM.

Question: And the “stoichiometry N” value (SEC-MALS)?
Answer: The value was 2.

B2: HilD N-terminal domain (HilD NTD, residues 7-206) (domain or fragment, Salmonella enterica, UniProt P0CL08 7-206, looked up)
chain: VSNSHQRPAADNLQKLKSLLTNTRQQIKSQTQQVTIKNLYVSSFTLVCFRSGKLTISNNHDTIYCDEPGMLVLKKEQVVNVTLEEVNGHMDFDILEIPTQRLGALYALIPNEQQTKMAVPTEKAQKIFYTPDFPARREVFEHLKTAFSCTKDTSKGCSNCNNKSCIENEELIPYFLLFLLTAFLRLPESYEIILSSAQIT
Question: For B2, which “stoichiometry N” value (SEC-MALS) is on record?
Answer: The value was 2.
